Data set [1] concerns the molecule itself. Kind of data set: crystal structure; FtsQ (58–276) with FtsB (22–103), co-purified complex at 6 mg/ml; P4(1)2(1)2, 2.6 Å, molecular replacement; 0.15 M potassium thiocyanate, 20% PEG 550 MME, 0.1 M sodium cacodylate pH 6.5, 19°C.
The target of data set [2] is T1, FtsQ (58–276), periplasmic domain of E. coli FtsQ (Escherichia coli strain K-12, UniProt P06136 58-276).
T1 construct: FtsQ, Escherichia coli K-12, periplasmic domain (alpha and beta domains), residues 58-276; construct printed as M-58-276-GSH6; No tag cleavage is described; also called FtsQ (residues 58 to 276); Q: M-58-276-GSH6; source: E. coli C41(DE3), purified (HisTrap, Sephacryl S300); not shown: His6, C-terminal, kept
T1 sequence (P06136 58-276): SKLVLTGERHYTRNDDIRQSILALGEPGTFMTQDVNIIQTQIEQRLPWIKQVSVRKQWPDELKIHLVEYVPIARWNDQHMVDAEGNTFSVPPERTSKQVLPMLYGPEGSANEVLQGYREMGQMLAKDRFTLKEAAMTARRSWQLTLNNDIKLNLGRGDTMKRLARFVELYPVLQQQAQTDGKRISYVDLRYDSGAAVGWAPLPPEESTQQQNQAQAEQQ
In words: SPR; FtsQ (58–276) immobilised on a CM5 chip by amide coupling (~1,000 RU); Biacore T200, 20°C; 10 mM HEPES pH 7.4, 150 mM NaCl, 0.4% glycerol; analytes injected 120 s, 600 s dissociation, 1:2 dilution series, triplicate. Conditions: both partners purified. On the technique in general: SPR reads the build-up and loss of mass on a sensor chip optically.

Data set [3] addresses T2, FtsQ (58–276) and FtsB (22–103) added together (Escherichia coli strain K-12 | E. coli, UniProt P06136 58-276; P0A6S5 22-103).
T2 construct: FtsQ, Escherichia coli K-12, periplasmic domain, residues 58-276; as m1; as m2; The two proteins were injected in combination (40 µM each at the start of the dilution series) over immobilised FtsL; also called FtsB and FtsQ; FtsQB complex; source: E. coli C41(DE3), each purified separately (HisTrap, Sephacryl S300), injected in combination
Kind of data set: SPR; FtsL (58–121) immobilised on a CM5 chip by amide coupling (~3,300 RU); Biacore T200, 20°C; 10 mM HEPES pH 7.4, 150 mM NaCl, 0.4% glycerol; FtsQ (58–276) and FtsB (22–103) from 40 µM each, alone or in combination. To be noted: both partners purified.

T2 sequence (P06136 58-276, chain 1 of 2, one chain of several): as the sequence (P06136 58-276) above

B1: FtsB (22–103), periplasmic domain of E. coli FtsB (domain or fragment, UniProt P0A6S5 22-103, looked up)
chain: GKNGIHDYTRVNDDVAAQQATNAKLKARNDQLFAEIDDLNGGQEALEERARNELSMTRPGETFYRLVPDASKRAQSAGQNNR
notes: No tag cleavage is described; source: E. coli C41(DE3), purified (HisTrap, Sephacryl S300); not shown: His6, N-terminal, kept
The term Kd denotes a measure of binding affinity in units of concentration. For the molecule B1, the binding result in data set [1] was “binds”. In data set [2], this molecule returned a Kd of 0.8 µM.

B2: FtsL (58–121), periplasmic domain of E. coli FtsL (domain or fragment, UniProt P0AEN4 58-121, looked up)
chain: HHTRLLTAQREQLVLERDALDIEWRNLILEENALGDHSRVERIATEKLQMQHVDPSQENIVVQK
notes: FtsL, E. coli, periplasmic domain, residues 58-121; Cloned into pET15b like FtsB; source: E. coli C41(DE3), purified (HisTrap, Sephacryl S300)
B2: the Kd in data set [3] was determined as 11 µM.

Source of the values: PMC6134095, “Structural Analysis of the Interaction between the Bacterial Cell Division Proteins FtsQ and FtsB” (mBio, 2018).
